Measured values reported in patent WO2009104736A1 (dated 2009).

T1: Aβ 34-42 (UniProt P05067 705-713)
T1 construct: domain: Aβ 34-42; Positions count on Aβ
T1 peptide (looked up): LMVGGVVIA

T2: Aβ 25-35 (UniProt P05067 696-706)
T2 construct: domain: Aβ 25-35; Positions count on Aβ; also called product code 4309-v
T2 peptide (looked up): GSNKGAIIGLM

B1: monoclonal antibody 3.4A10 (antibody of Example 1) (antibody, V domains shown)
VH: EVQLLESGGGLVQPGGSRKLSCAASGFTFSSFGVHWFRQAPEKGLEWVAYISSGSSTIYYADTVKGRFTISRDNPKNTLFLQMASLRSEDTAMYYCAPYGSSPFPYWGQGTLVTVST
VL: ELQLTQSPASLAVSLGQRATISCRASESVDSYGYNFMHWYQQKPGQPPKLLIYLASNLESGVPARFSGSGSRTDFTLTIDPVEADDAATYYCQQNNEDPLTFGAGTKLELKR
notes: Mouse IgG2b from a hybridoma, purified from ascites; also called TAPIR antibody

What was measured:
[1] = target: amyloid β 1-42 protein (Aβ 1-42) (UniProt P05067); test: SPR competition, Biacore J; Aβ 1-42 on a CM5 chip saturated with 3.4A10 (competitor), then 3.4A10 and 4G8 mixed 20:1; design: unit not given here
[2] = target: T1, Aβ 34-42; test: dot blot of peptides on nitrocellulose
[3] = target: T2, Aβ 25-35; test: dot blot of peptides on nitrocellulose

Chain of amyloid β 1-42 protein (Aβ 1-42) (P05067 672-713 limits assumed): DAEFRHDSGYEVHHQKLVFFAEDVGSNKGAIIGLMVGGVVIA

| Molecule | enhanced reaction (response level) [1] | binding result [2] | binding result [3] |
| --- | --- | --- | --- |
| mouse anti-human Aβ monoclonal antibody 4G8 | > 2000 | – | – |
| B1 | – | no binding (tested: 1 μg/ml antibody) | no binding (tested: 1 μg/ml antibody) |
